PMC9866879, “BREVIPEDICELLUS Positively Regulates Salt-Stress Tolerance in Arabidopsis thaliana”

T1: BP (B…US) (Arabidopsis thaliana, UniProt P46639 1-398)
T1 sequence: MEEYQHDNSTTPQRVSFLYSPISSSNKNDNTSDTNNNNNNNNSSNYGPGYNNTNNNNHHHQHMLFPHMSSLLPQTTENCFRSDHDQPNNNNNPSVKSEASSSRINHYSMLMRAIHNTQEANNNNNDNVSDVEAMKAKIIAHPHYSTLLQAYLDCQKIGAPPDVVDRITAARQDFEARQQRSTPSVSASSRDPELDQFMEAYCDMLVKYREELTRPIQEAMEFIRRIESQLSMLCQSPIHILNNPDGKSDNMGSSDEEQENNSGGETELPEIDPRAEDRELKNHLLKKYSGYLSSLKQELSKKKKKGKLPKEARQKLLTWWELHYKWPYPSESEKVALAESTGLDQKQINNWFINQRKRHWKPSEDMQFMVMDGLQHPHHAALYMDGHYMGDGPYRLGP

B1: XTH7 promoter probe (TGAC) (dsDNA)
DNA 1: TGTAATGCTGACACGTGTCCCAGT
DNA 2: ACTGGGACACGTGTCAGCATTACA
B2: XTH7 promoter probe, unlabeled competitor (dsDNA)
DNA 1: TGTAATGCTGACACGTGTCCCAGT
DNA 2: ACTGGGACACGTGTCAGCATTACA

Key:
BP (B…US) [1] = molecular target: T1, BP (B…US); experiment: EMSA; LightShift Chemiluminescent EMSA kit (Thermo) per manufacturer's protocol; buffer, salt, pH and temperature not stated; conditions: protein: recombinant; tags: GST (pGEX4T-3); label: biotin; blunt
BP (B…US) [2] = molecular target: T1, BP (B…US); experiment: competition; unlabeled competitor against biotin-labelled N1; signal gradually decreased; LightShift Chemiluminescent EMSA kit (Thermo) per manufacturer's protocol; buffer, salt, pH and temperature not stated; conditions: protein: recombinant; tags: GST (pGEX4T-3); blunt

Binder | binding result (BP (B…US) [1]) | binding result (BP (B…US) [2])
B1 | binds | 
B2 |  | binds
